Test results taken from IntAct's records for PubMed 31515488.

B1: E3 ubiquitin-protein ligase CBL-B (Homo sapiens), Q13191 (parent)
chain: MANSMNGRNPGGRGGNPRKGRILGIIDAIQDAVGPPKQAAADRRTVEKTWKLMDKVVRLCQNPKLQLKNSPPYILDILPDTYQHLRLILSKYDDNQKLAQLSENEYFKIYIDSLMKKSKRAIRLFKEGKERMYEEQSQDRRNLTKLSLIFSHMLAEIKAIFPNGQFQGDNFRITKADAAEFWRKFFGDKTIVPWKVFRQCLHEVHQISSGLEAMALKSTIDLTCNDYISVFEFDIFTRLFQPWGSILRNWNFLAVTHPGYMAFLTYDEVKARLQKYSTKPGSYIFRLSCTRLGQWAIGYVTGDGNILQTIPHNKPLFQALIDGSREGFYLYPDGRSYNPDLTGLCEPTPHDHIKVTQEQYELYCEMGSTFQLCKICAENDKDVKIEPCGHLMCTSCLTAWQESDGQGCPFCRCEIKGTEPIIVDPFDPRDEGSRCCSIIDPFGMPMLDLDDDDDREESLMMNRLANVRKCTDRQNSPVTSPGSSPLAQRRKPQPDPLQIPHLSLPPVPPRLDLIQKGIVRSPCGSPTGSPKSSPCMVRKQDKPLPAPPPPLRDPPPPPPERPPPIPPDNRLSRHIHHVESVPSRDPPMPLEAWCPRDVFGTNQLVGCRLLGEGSPKPGITASSNVNGRHSRVGSDPVLMRKHRRHDLPLEGAKVFSNGHLGSEEYDVPPRLSPPPPVTTLLPSIKCTGPLANSLSEKTRDPVEEDDDEYKIPSSHPVSLNSQPSHCHNVKPPVRSCDNGHCMLNGTHGPSSEKKSNIPDLSIYLKGDVFDSASDPVPLPPARPPTRDNPKHGSSLNRTPSDYDLLIPPLGEDAFDALPPSLPPPPPPARHSLIEHSKPPGSSSRPSSGQDLFLLPSDPFVDLASGQVPLPPARRLPGENVKTNRTSQDYDQLPSCSDGSQAPARPPKPRPRRTAPEIHHRKPHGPEAALENVDAKIAKLMGEGYAFEEVKRALEIAQNNVEVARSILREFAFPPPVSPRLNL
B2: Ras-related protein Rab-39B (Homo sapiens), Q96DA2 (parent)
chain: MEAIWLYQFRLIVIGDSTVGKSCLIRRFTEGRFAQVSDPTVGVDFFSRLVEIEPGKRIKLQIWDTAGQERFRSITRAYYRNSVGGLLLFDITNRRSFQNVHEWLEETKVHVQPYQIVFVLVGHKCDLDTQRQVTRHEAEKLAAAYGMKYIETSARDAINVEKAFTDLTRDIYELVKRGEITIQEGWEGVKSGFVPNVVHSSEEVVKSERRCLC
B3: Rho guanine nucleotide exchange factor 39 (Homo sapiens), Q8N4T4 (parent)
chain: MELSCPGSRCPVQEQRARWERKRACTARELLETERRYQEQLGLVATYFLGILKAKGTLRPPERQALFGSWELIYGASQELLPYLEGGCWGQGLEGFCRHLELYNQFAANSERSQTTLQEQLKKNKGFRRFVRLQEGRPEFGGLQLQDLLPLPLQRLQQYENLVVALAENTGPNSPDHQQLTRAARLISETAQRVHTIGQKQKNDQHLRRVQALLSGRQAKGLTSGRWFLRQGWLLVVPPHGEPRPRMFFLFTDVLLMAKPRPPLHLLRSGTFACKALYPMAQCHLSRVFGHSGGPCGGLLSLSFPHEKLLLMSTDQEELSRWYHSLTWAISSQKN
partner: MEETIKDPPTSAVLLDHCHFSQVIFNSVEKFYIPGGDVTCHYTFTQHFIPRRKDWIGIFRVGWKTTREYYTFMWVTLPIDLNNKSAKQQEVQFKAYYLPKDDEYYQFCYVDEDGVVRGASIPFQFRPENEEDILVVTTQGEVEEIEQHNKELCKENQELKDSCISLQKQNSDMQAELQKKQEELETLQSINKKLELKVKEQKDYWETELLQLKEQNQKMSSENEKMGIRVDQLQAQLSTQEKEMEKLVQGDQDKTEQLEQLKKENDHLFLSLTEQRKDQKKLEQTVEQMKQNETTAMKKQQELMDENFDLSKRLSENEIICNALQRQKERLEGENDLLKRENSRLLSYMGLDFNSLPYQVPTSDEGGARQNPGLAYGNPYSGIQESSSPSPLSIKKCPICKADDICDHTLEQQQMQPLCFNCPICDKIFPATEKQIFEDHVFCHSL
B4: E3 ubiquitin-protein ligase Midline-1 (Homo sapiens), O15344 (parent)
chain: METLESELTCPICLELFEDPLLLPCAHSLCFNCAHRILVSHCATNESVESITAFQCPTCRHVITLSQRGLDGLKRNVTLQNIIDRFQKASVSGPNSPSETRRERAFDANTMTSAEKVLCQFCDQDPAQDAVKTCVTCEVSYCDECLKATHPNKKPFTGHRLIEPIPDSHIRGLMCLEHEDEKVNMYCVTDDQLICALCKLVGRHRDHQVAALSERYDKLKQNLESNLTNLIKRNTELETLLAKLIQTCQHVEVNASRQEAKLTEECDLLIEIIQQRRQIIGTKIKEGKVMRLRKLAQQIANCKQCIERSASLISQAEHSLKENDHARFLQTAKNITERVSMATASSQVLIPEINLNDTFDTFALDFSREKKLLECLDYLTAPNPPTIREELCTASYDTITVHWTSDDEFSVVSYELQYTIFTGQANVVSLCNSADSWMIVPNIKQNHYTVHGLQSGTKYIFMVKAINQAGSRSSEPGKLKTNSQPFKLDPKSAHRKLKVSHDNLTVERDESSSKKSHTPERFTSQGSYGVAGNVFIDSGRHYWEVVISGSTWYAIGLAYKSAPKHEWIGKNSASWALCRCNNNWVVRHNSKEIPIEPAPHLRRVGILLDYDNGSIAFYDALNSIHLYTFDVAFAQPVCPTFTVWNKCLTIITGLPIPDHLDCTEQLP
B5: Vacuolar protein sorting-associated protein 28 homolog (Homo sapiens), Q9UK41-2 (parent)
chain: MFHGIPATPGIGAPGNKPELYEEVKLYKNAREREKYDNMAELFAVVKTMQALEKAYIKDCVSPSEYTAACSRLLVQYKAAFRQVQGSEISSIDEFCRKFRLDCPLAMERIKEDRPITIKDDKGNLNRCIADVVSLFITVMDKLRLEIRAMDEIQPDLRELMETMHRMSHLPPDFEGRQTVSQWWVSLPARQSPAVPETLPARRSPAVPLRPSAPTCPVLHSQAADPERHVGVR
B6: Circadian locomoter output cycles protein kaput (Homo sapiens), O15516 (parent)
chain: MLFTVSCSKMSSIVDRDDSSIFDGLVEEDDKDKAKRVSRNKSEKKRRDQFNVLIKELGSMLPGNARKMDKSTVLQKSIDFLRKHKEITAQSDASEIRQDWKPTFLSNEEFTQLMLEALDGFFLAIMTDGSIIYVSESVTSLLEHLPSDLVDQSIFNFIPEGEHSEVYKILSTHLLESDSLTPEYLKSKNQLEFCCHMLRGTIDPKEPSTYEYVKFIGNFKSLNSVSSSAHNGFEGTIQRTHRPSYEDRVCFVATVRLATPQFIKEMCTVEEPNEEFTSRHSLEWKFLFLDHRAPPIIGYLPFEVLGTSGYDYYHVDDLENLAKCHEHLMQYGKGKSCYYRFLTKGQQWIWLQTHYYITYHQWNSRPEFIVCTHTVVSYAEVRAERRRELGIEESLPETAADKSQDSGSDNRINTVSLKEALERFDHSPTPSASSRSSRKSSHTAVSDPSSTPTKIPTDTSTPPRQHLPAHEKMVQRRSSFSSQSINSQSVGSSLTQPVMSQATNLPIPQGMSQFQFSAQLGAMQHLKDQLEQRTRMIEANIHRQQEELRKIQEQLQMVHGQGLQMFLQQSNPGLNFGSVQLSSGNSSNIQQLAPINMQGQVVPTNQIQSGMNTGHIGTTQHMIQQQTLQSTSTQSQQNVLSGHSQQTSLPSQTQSTLTAPLYNTMVISQPAAGSMVQIPSSMPQNSTQSAAVTTFTQDRQIRFSQGQQLVTKLVTAPVACGAVMVPSTMLMGQVVTAYPTFATQQQQSQTLSVTQQQQQQSSQEQQLTSVQQPSQAQLTQPPQQFLQTSRLLHGNPSTQLILSAAFPLQQSTFPQSHHQQHQSQQQQQLSRHRTDSLPDPSKVQPQ
B7: Alpha-ketoglutarate-dependent dioxygenase alkB homolog 3 (Homo sapiens), Q96Q83 (parent)
chain: MEEKRRRARVQGAWAAPVKSQAIAQPATTAKSHLHQKPGQTWKNKEHHLSDREFVFKEPQQVVRRAPEPRVIDREGVYEISLSPTGVSRVCLYPGFVDVKEADWILEQLCQDVPWKQRTGIREDITYQQPRLTAWYGELPYTYSRITMEPNPHWHPVLRTLKNRIEENTGHTFNSLLCNLYRNEKDSVDWHSDDEPSLGRCPIIASLSFGATRTFEMRKKPPPEENGDYTYVERVKIPLDHGTLLIMEGATQADWQHRVPKEYHSREPRVNLTFRTVYPDPRGAPW
partner: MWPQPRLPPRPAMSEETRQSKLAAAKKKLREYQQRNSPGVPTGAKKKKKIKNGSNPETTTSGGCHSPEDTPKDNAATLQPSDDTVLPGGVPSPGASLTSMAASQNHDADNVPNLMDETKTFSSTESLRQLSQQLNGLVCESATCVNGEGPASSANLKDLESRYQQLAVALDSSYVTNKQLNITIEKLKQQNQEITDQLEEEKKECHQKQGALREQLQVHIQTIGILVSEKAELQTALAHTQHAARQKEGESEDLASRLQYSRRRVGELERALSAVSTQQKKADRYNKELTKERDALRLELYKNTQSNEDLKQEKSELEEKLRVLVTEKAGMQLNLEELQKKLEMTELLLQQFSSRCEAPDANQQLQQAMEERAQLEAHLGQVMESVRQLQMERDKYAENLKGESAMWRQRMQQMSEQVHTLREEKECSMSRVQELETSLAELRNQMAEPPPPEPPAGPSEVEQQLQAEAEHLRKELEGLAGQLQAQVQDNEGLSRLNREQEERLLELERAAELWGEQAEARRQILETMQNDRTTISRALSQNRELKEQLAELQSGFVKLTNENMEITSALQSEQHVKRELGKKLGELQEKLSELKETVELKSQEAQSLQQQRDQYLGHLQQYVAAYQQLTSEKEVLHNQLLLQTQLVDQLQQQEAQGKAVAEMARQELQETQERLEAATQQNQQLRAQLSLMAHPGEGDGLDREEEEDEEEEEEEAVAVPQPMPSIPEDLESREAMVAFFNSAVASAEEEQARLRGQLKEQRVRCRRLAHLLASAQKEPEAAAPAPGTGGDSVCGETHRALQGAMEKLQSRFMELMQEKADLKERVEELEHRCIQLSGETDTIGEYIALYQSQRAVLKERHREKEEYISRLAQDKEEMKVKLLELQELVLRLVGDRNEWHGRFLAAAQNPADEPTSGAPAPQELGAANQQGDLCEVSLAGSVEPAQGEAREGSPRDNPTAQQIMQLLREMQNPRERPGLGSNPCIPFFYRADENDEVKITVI

Variants of: B1
Conditions: with gors2_human GORASP2, Q9H8Y8

With S622T as the variant, how does the “effect of a mutation on the interaction” value read?
The value was “with no effect”.

Variants of: B2
Conditions: with rufy1_human RUFY1, Q96T51
rufy1_human RUFY1, Q96T51, sequence (Q96T51 whole entry): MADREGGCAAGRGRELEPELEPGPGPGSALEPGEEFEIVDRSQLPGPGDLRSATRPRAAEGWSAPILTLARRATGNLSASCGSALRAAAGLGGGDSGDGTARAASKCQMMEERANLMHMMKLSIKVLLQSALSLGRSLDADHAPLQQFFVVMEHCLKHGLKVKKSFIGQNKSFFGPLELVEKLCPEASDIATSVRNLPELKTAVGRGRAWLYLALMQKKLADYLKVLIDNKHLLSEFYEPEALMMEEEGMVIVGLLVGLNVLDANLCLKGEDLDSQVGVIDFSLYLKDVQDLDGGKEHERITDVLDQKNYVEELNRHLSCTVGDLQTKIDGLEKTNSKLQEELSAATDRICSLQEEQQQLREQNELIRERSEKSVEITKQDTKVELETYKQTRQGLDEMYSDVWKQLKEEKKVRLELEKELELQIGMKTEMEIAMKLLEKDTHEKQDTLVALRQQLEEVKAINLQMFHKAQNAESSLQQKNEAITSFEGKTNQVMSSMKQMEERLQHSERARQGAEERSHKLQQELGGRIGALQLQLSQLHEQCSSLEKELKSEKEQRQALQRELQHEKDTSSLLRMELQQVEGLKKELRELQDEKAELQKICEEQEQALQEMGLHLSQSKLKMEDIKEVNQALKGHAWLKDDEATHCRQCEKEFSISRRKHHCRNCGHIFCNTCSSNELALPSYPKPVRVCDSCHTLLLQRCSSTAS

R177S was tested. Which “effect of a mutation on the interaction” value did it give?
Its value is “disrupting interaction strength”.

Variants of: B3
Conditions: with caco2_human CALCOCO2, Q13137

Which “effect of a mutation on the interaction” value does the source give for D204N here?
The value was “with no effect”.

For R230C, which “effect of a mutation on the interaction” value is on record?
The value was “with no effect”.

Variants of: B4
Conditions: with meox1_human MEOX1, P50221
meox1_human MEOX1, P50221, sequence (P50221 whole entry): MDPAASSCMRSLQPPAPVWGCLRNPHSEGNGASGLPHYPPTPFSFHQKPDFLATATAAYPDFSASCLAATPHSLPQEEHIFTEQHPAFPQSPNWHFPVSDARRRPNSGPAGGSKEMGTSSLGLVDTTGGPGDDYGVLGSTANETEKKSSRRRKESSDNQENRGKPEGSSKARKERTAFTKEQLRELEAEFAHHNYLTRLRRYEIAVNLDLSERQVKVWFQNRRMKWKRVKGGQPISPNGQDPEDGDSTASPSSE

D84N was tested. Which “effect of a mutation on the interaction” value did it give?
The value was “with no effect”.

Variants of: B4
Conditions: with echp_human EHHADH

For D84N, which “effect of a mutation on the interaction” value is on record?
The value was “with no effect”.

Variants of: B4
Conditions: with ub2d3_human UBE2D3, P61077
ub2d3_human UBE2D3, P61077, sequence (P61077 whole entry): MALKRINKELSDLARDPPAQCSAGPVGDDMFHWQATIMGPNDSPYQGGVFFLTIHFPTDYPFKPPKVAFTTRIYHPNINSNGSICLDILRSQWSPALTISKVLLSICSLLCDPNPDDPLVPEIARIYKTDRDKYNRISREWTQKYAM

Which “effect of a mutation on the interaction” value does the source give for D84N here?
The value was “with no effect”.

Variants of: B4
Conditions: with ub2e2_human UBE2E2, Q96LR5
ub2e2_human UBE2E2, Q96LR5, sequence (Q96LR5 whole entry): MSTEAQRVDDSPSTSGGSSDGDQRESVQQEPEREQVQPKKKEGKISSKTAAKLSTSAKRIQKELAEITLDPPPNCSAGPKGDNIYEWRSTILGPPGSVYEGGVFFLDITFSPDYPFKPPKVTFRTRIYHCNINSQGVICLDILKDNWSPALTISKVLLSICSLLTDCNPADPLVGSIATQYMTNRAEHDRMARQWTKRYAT

For D84N, which “effect of a mutation on the interaction” value is on record?
The value was “with no effect”.

Variants of: B5
Conditions: with ts101_human TSG101, Q99816

How did the “effect of a mutation on the interaction” value turn out when R203W was run?
The value was “with no effect”.

Variants of: B6
Conditions: with bmal1_human BMAL1, O00327
bmal1_human BMAL1, O00327, sequence (O00327 whole entry): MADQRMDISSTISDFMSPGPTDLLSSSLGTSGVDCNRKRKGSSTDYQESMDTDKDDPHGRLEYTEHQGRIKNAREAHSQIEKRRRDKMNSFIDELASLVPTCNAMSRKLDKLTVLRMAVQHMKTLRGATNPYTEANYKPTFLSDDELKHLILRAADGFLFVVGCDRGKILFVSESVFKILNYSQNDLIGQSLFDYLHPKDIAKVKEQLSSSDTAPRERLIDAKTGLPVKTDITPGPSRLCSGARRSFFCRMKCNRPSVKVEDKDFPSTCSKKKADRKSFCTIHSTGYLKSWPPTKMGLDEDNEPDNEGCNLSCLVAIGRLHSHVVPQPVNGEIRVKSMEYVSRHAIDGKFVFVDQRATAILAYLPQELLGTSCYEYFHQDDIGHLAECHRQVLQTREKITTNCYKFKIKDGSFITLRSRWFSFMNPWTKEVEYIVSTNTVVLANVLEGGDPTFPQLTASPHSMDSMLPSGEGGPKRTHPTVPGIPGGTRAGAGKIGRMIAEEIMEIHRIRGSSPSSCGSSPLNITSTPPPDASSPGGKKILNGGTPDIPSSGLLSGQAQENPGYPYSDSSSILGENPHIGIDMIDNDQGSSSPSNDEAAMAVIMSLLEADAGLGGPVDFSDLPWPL

Which “effect of a mutation on the interaction” value does the source give for G235E here?
The value was “with no effect”.

L395I was tested. Which “effect of a mutation on the interaction” value did it give?
Its value is “with no effect”.

Variants of: B7
Conditions: with goga2_human GOLGA2, Q08379

G39C was tested. Which “effect of a mutation on the interaction” value did it give?
The value was “with no effect”.
